Reference: IntAct's records for PubMed 19277847

B1: Junctophilin-2 (Mus musculus), Q9ET78 (parent)
chain: MSGGRFDFDDGGAYCGGWEGGKAHGHGLCTGPKGQGEYSGSWNFGFEVAGVYTWPSGNTFEGYWSQGKRHGLGIETKGRWLYKGEWTHGFKGRYGIRQSTNSGAKYEGTWNNGLQDGYGTETYADGGTYQGQFTNGMRHGYGVRQSVPYGMAVVVRSPLRTSLSSLRSEHSNGTVAPDSPAADGPMLPSPPVPRGGFALTLLATAEAARPQGLFTRGTLLGRLRRSESRTSLGSQRSRLSFLKSELSSGASDAASTGSLAEGAEGPDDAAAPFDADIDATTTETYMGEWKNDKRSGFGVSERSSGLRYEGEWLDNLRHGYGRTTLPDGHREEGKYRHNVLVKGTKRRVLPLKSSKVRQKVEHGVEGAQRAAAIARQKAEIAASRTSHAKAKAEAAEQAALAANQESNIARTLAKELAPDFYQPGPEYQKRRLLQEILENSESLLEPPERGLGTGLPERPRESPQLHERETPQPEGGPPSPAGTPPQPKRPRPGASKDGLLSPGSWNGEPGGEGSRPATPSDGAGRRSPARPASEHMAIEALQPPPAPSQEPEVAMYRGYHSYAVRTGPPEPPPLEDEQEPEPEPEPEVRRSDSAPPSPVSATVPEEEPPAPRSPVPAKQATLEPKPIVPKAEPKAKARKTEARGLSKAGAKKKGRKEVAQAKEAEVEVEEVPNTVLICMVILLNIGLAILFVHLLT
partner: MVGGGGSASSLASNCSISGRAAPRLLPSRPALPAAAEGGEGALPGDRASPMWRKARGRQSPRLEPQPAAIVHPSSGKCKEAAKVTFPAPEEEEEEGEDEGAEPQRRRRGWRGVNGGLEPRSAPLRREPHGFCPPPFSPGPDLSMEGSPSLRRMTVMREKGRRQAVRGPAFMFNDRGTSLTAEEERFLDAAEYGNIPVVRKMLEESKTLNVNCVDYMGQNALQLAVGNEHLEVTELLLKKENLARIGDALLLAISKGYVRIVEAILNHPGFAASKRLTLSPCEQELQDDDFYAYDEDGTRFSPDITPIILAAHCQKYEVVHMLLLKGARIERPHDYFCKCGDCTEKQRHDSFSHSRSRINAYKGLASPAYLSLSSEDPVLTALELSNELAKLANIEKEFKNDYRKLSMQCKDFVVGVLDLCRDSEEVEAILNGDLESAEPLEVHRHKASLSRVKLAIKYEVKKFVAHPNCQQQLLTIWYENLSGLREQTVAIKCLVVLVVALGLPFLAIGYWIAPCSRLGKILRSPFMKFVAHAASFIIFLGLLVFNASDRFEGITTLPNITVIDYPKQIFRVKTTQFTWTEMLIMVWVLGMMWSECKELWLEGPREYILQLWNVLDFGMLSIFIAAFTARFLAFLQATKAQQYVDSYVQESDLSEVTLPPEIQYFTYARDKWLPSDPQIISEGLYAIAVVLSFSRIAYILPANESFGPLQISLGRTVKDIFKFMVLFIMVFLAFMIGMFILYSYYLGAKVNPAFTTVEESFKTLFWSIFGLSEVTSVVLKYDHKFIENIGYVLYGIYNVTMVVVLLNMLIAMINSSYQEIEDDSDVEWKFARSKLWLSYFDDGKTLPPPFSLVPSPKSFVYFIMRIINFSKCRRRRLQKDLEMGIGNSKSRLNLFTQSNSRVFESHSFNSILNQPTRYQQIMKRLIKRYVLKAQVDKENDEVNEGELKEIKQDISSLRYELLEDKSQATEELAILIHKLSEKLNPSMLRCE

Variants of: B1
Conditions: with TRPC3, G1U2U3

Effect of a mutation on the interaction, decreasing interaction:
E227A
R216A
R222A
